± gives the standard deviation.

These results are taken from the supplement of paper PMC10567573.

A short description of this series: protein stability index of a GFP-peptide fusion (GPS, HEK-293T) (PSI 1-6); higher = more stable. Particulars: c terminus: a fixed tail appended.
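Further: 24-mer peptide tiles fused after GFP, lentivirally expressed, FACS-sorted into six equal bins by GFP/DsRed ratio, decoded by Illumina sequencing, PSI is the read-weighted mean bin number.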

For GILNRPPAPTATVPAPQPPVTKPL [ZNF207], the protein stability index by setting is: (treatment: DMSO) 4.53 ± 0.19; (treatment: MLN4924 1 uM, 8 h) 4.57 ± 0.16.
For GISGTTTKKGDLQWNAGEKKLTGG [SNAP91] the same measures were 4.43 ± 0.077 and 4.86 ± 0.41.
Regarding GLAKEYIDPETKKHIPYREHKSLT [CSNK1G3], the protein stability index reads like this: (treatment: DMSO) 4.21 ± 0.22; (treatment: MLN4924 1 uM, 8 h) 4.2 ± 0.13.
For GLLQGTSAETSGGLLICLPREQAA [SEPHS2] the same measures were 3.07 ± 0.16 and 3.29 ± 0.18.
In the case of GLQHAPEPDAADGPYDPNSVRISF [SMAD6], the protein stability index by setting is: (treatment: DMSO) 4.24 ± 0.38; (treatment: MLN4924 1 uM, 8 h) 4.49 ± 0.27.
For GLQILGHTLRASMRELGLLIFFLF [KCNA4] the same measures were 2.95 ± 0.6 and 2.96 ± 0.25.
For GLRRLGLHRTEGELQKIVQAGDKD [SLC25A25] the same measures were 4.45 ± 0.12 and 4.82 ± 0.52.
The matching figures for GNSSGSDVTSLSSQLPDTPNSMVP [ISL2]: 5.13 ± 0.2 and 4.9 ± 0.32.
For GRAQDDVSEWASKAKANGITMYAV [MATN2], the protein stability index is 2.56 ± 0.36 (treatment: DMSO) and 2.62 ± 0.39 (treatment: MLN4924 1 uM, 8 h).
The matching figures for GRGGRDRFTAESYTVLGDTLIDGG [FSD1]: 4.06 ± 0.26 and 4.08 ± 0.52.
The matching figures for GRYRDARMNDLHYLNLDTWEWNEL [KLHDC2]: 2.86 ± 0.24 and 2.88 ± 0.25.
For GSAAKLVCYFTNWAQYRQGEARFL [CHIT1], the protein stability index runs as follows: (treatment: DMSO) 2.1 ± 0.36; (treatment: MLN4924 1 uM, 8 h) 2.23 ± 0.18.
The matching figures for GSAGRLLAVGTDLYGQRNSAPEQE [GFOD1]: 4.61 ± 0.44 and 4.79 ± 0.21.
The matching figures for GSEVYRMLREPAEPVAAEPKQSGS [PDLIM4]: 5.12 ± 0.25 and 5.03 ± 0.22.
For GSPSRPLSRRQLCPLTPGPGKALG [C2CD2L] the same measures were 3.81 ± 0.35 and 4.11 ± 0.11.
With GSRHPTLVLPLVPELLSTHPFFDT [INTS4], the protein stability index runs as follows: (treatment: DMSO) 2.23 ± 0.28; (treatment: MLN4924 1 uM, 8 h) 2.31 ± 0.078.
The matching figures for GSVPLPESTRELGELLGEARYYLV [KCTD13]: 2.11 ± 0.36 and 2.35 ± 0.32.
The matching figures for GTAPLNQETAEFFLSLDIPIGELY [ACSBG2]: 1.89 ± 0.26 and 2.32 ± 0.26.
GTLGSCSSSSECLEDSTMGSVADT [PLK2] came in with a protein stability index (treatment: DMSO) of 5.36 ± 0.11 and a protein stability index (treatment: MLN4924 1 uM, 8 h) of 5.28 ± 0.15.
Regarding GTTEAATQDGKEQPELPCAMAMGT [PXN], the protein stability index was 5.48 ± 0.13 (treatment: DMSO) and 5.45 ± 0.22 (treatment: MLN4924 1 uM, 8 h).
The matching figures for GVIAAIVQLHNGTKYKKFPHWLDK [STEAP1]: 2.6 ± 0.31 and 2.39 ± 0.63.
The matching figures for GVSPADMYRWKLSSHEPCSATCTT [ADAMTSL2]: 2.98 ± 0.33 and 3.37 ± 0.63.
For GWSLGRWTHDGIDINNNFPDLNTL [CPXM2] the same measures were 2.01 ± 0.085 and 2.34 ± 0.091.
Turning to GYSPNGRDANGWTLLHFSAARGKE [ASB7], the protein stability index is, setting by setting: (treatment: DMSO) 2.91 ± 0.47; (treatment: MLN4924 1 uM, 8 h) 2.94 ± 0.19.
HAPTIHFNYRYFEVEEADGNKQWW [CPOX]: the protein stability index came to 2.66 ± 0.38 (treatment: DMSO) and 2.7 ± 0.29 (treatment: MLN4924 1 uM, 8 h).
For HCRKCGKAVCGKCSSKRSSIPLMG [WDFY2] the same measures were 3.94 ± 0.21 and 3.93 ± 0.17.
For HERGLKLHQTIYNQACKLLSDDYE [INTS4] the same measures were 3.18 ± 0.32 and 3.47 ± 0.47.
The matching figures for HGSGGSGYPAAPPAVPFAPHFLQG [TBX6]: 2.94 ± 0.3 and 3.06 ± 0.31.
Sequence HHSFPYDYSASEYRWHINFTTFFI [SCD] displayed a protein stability index (treatment: DMSO) of 3.06 ± 0.5 and a protein stability index (treatment: MLN4924 1 uM, 8 h) of 2.86 ± 0.41.
Regarding HIGHVGWDPNTGFDLNNLDPELKN [WASL], the protein stability index amounted to 4.42 ± 0.24 (treatment: DMSO) and 4.47 ± 0.32 (treatment: MLN4924 1 uM, 8 h).
As for HILKARKVLTEPEVRYYLRQIVSG [PLK2], the protein stability index by setting is: (treatment: DMSO) 2.17 ± 0.53; (treatment: MLN4924 1 uM, 8 h) 2.33 ± 0.43.
For the sequence HLEKKGPQVRDWSHYFKIIEDLRA [KRT18], the protein stability index by setting is: (treatment: DMSO) 2.41 ± 0.13; (treatment: MLN4924 1 uM, 8 h) 2.69 ± 0.14.
In the case of HLQHKLICTRKPEEIRGGGLLKYC [TENT5D], the protein stability index (treatment: DMSO) is 2.21 ± 0.39 and the protein stability index (treatment: MLN4924 1 uM, 8 h) worked out at 2.88 ± 0.095.
For HNIPLETIIPILQHLKYKEHPEAL [INTS3] the same measures were 2.51 ± 0.31 and 2.55 ± 0.38.
For HNQKVHMHMVDLMSSIICEGDTVS [PDS5B] the same measures were 2.46 ± 0.17 and 2.64 ± 0.26.
The sequence HQAQLISKIPHILKEMYDADLLEE [EIF5] came in with a protein stability index (treatment: DMSO) of 2.94 ± 0.24 and a protein stability index (treatment: MLN4924 1 uM, 8 h) of 3.27 ± 0.59.
